Source: article PMC3303827

Tests used:
[1] = molecular target: U266 derived IgE λ light chain (dimer) (human (endogenous in U266)); experiment: ESI-Qq-TOF mass spectrometry; nano-spray; sample in 20 mM HCl pH 2.0 (methods say pH 2.7); spectra deconvoluted by MaxEnt
[2] = molecular target: U266 derived IgE λ light chain (dimer) (human (endogenous in U266)); experiment: SEC; Superdex 75 10/300 GL; 1 g/L light chain in 20 mM HCl pH 2.0; mobile phase 100 mM Na2SO4, 25 mM Na2HPO4 pH 7.4; calibrated with BSA, chymotrypsinogen A, lysozyme
[3] = molecular target: U266 derived IgE λ light chain (dimer) (human (endogenous in U266)); experiment: SEC; Superdex 75 10/300 GL; 1 g/L light chain in 25 mM PBS pH 7.4; mobile phase 100 mM Na2SO4, 25 mM Na2HPO4 pH 7.4; calibrated with BSA, chymotrypsinogen A, lysozyme
[4] = molecular target: U266 derived IgE λ light chain (dimer) (human (endogenous in U266)); experiment: ESI-Qq-TOF mass spectrometry; nano-spray; sample in 25 mM PBS pH 7.4; spectra deconvoluted by MaxEnt

Measured: stoichiometry N

U266 derived IgE λ light chain (dimer) (natural protein)
2: [1] | [2] | [3] | [4]
